Results reported in patent publication US20100239556A1, “PROMOTING ECM PRODUCTION BY FIBROBLAST CELLS AND/OR PROMOTING MIGRATION OF FIBROBLAST CELLS IN A BIOLOGICAL SYSTEM” (TGR BioScience Pty Ltd., priority 2006, published 2010).

Legend:
HFF cells = experiment: Collagen I production in the presence of dexamethasone; assay type: cell-based, human
Experimental: (§1) Primary human foreskin fibroblast cells (HFF) were seeded into 96 well plates at a density of 1.2×10^4 cells/well and cultured overnight in 10% fetal bovine serum/Dulbecco's minimum essential media (10% FBS/DMEM) at 37° C. and 5% CO2. The cells were then starved overnight in serum free DMEM and triplicate wells treated for six hours with a range of doses of proteins with peroxidase activity; horse radish peroxidase (HRP; 0.2-50 ug/ml), Arthromyces ramosus peroxidase (ARP; 0.2-50 ug/ml), microperoxidase (MP; 8-500 ug/ml), soy bean peroxidase (SBP; 0.2-100 ug/ml) and lactoperoxidase (LP; 10-310 ug/ml) (all obtained from Sigma-Aldrich). At the end of the six hour treatment period, the media was aspirated and replaced with fresh serum free DMEM and the cells cultured for a further 72 hours. After 72 hours the culture media was collected for assessment of secreted, soluble collagen types I, III and VI as well as fibronectin protein and the cells assessed for viability/growth using an alamar blue fluorescent dye assay. This assay measures the reduction of oxidized, blue nonfluorescent Alamar Blue reagent to a pink fluorescent dye in the cell medium, such that the higher the amount of reduction, the greater the cell number and/or activity (O'Brien Eur J Biochem 267 2000). Briefly, cells were bathed in a 10% Alamar Blue/phosphate-buffered saline (PBS) solution for 30-60 minutes and fluorescence measured at wavelengths of 485 nm excitation and 595 nm emission using a Wallac Victor Multilabel HTS counter. Relative fluorescent units (RFU) for each sample were normalized to control wells (DMEM only treated cells) and data expressed as mean±standard error of the mean (sem) for triplicate wells. Experiments were repeated at least three times with the combined data from all experiments shown.
The amount of soluble collagen types I, III, and VI in HFF conditioned media was measured by a direct coat ELISA method using standard curves constructed from purified human collagen I, III or VI (extracted from human placenta; col I, BD Biosciences; col III and VI, Rocklands Immunochemicals) and fibronectin (extracted from human plasma, Chemicon). Samples and standards (20 μl/well) were added to a 384 well spectraplate (Packard BioScience) and left at room temperature (RT) overnight. […] After a final wash (6×PBS-T), enhancement solution was added for at least 10 minutes and fluorescence measured at excitation 340 nm and emission 615 nm using a Wallac Victor Multilabel HTS counter. The respective ECM concentration of each sample was determined from the standard curve (μg/ml) and normalized to control wells (DMEM only treated cells) with the mean±sem for triplicate wells calculated. […]

[1] = system: human foreskin fibroblast cells (HFF); experiment: Alamar blue viability/growth assay; assay type: cell-based; conditions: 72 hours
Experimental: as §1, with “At the end of the six hour treatment period, the media was aspirated and replaced with fresh serum free DMEM and the cells cultured for a further 72 hours.” left out, “This assay measures the reduction of oxidized, blue nonfluorescent Alamar Blue reagent to a pink fluorescent dye in the cell medium, such that the higher the amount of reduction, the greater the cell number and/or activity (O'Brien Eur J Biochem 267 2000).” left out, “Experiments were repeated at least three times with the combined data from all experiments shown.” left out

dermis = experiment: Fibrogenic response after intradermal injection; assay type: in vivo, Sprague-Dawley rats; conditions: LP 125 μg, TGFβ 0.5 μg, 3 days
Experimental: Groups of up to 4-8 female Sprague-Dawley rats were lightly anaesthetized and the dorsum shaved. At different sites on their dorsum, each rat received a bolus, intradermal injection of 4 doses of a protein with peroxidase activity (LP, […]; HRP, 1.25-25 μg; SBP, 1.25-25 μg; or micro-peroxidase [MP], 5-125 μg), a vehicle control or TGFβ2 as a positive control. Arthromyces ramosus peroxidase (ARP) was also injected at one dose of 25 μg. Proteins with peroxidase activity were injected in a volume of 50 μl which was sufficient to create a small blister in the skin that resolved within a few minutes. Across the group of rats, each dose of proteins with peroxidase activity was injected into each of the different injection sites to control for any site-related, intra-rat variation. The rats were returned to their cage and left alone for 3 days after which they were killed by CO2 asphyxiation and the skin at the injection sites collected for analysis. The skin at the injection sites was excised using a 6 mm biopsy punch with each piece bisected and fixed in 10% buffered formalin. Fixed tissue was processed for histological assessment by graded dehydration and mounting in paraffin blocks. Blocks were sectioned and sections stained with haematoxylin and eosin (H&E) and Masson's trichrome for qualitative analysis by an experienced pathologist. H&E stained sections were scored for the “fibroblast reaction” (1+-4+) to reflect the number of fibroblast cells identified at the injection site, with 4+ representing the greatest response. H&E and Massons trichrome stained sections were used to evaluate the amount of deposited, collagen-rich extracellular matrix (ECM) that was associated with the fibroblast reaction at each injection site. The collagen-rich ECM deposition was scored 1+-3+ with 3+ representing the greatest response. The scores were combined across the group of rats and statistical analysis performed using a Kruskal-Wallis one way analysis of variance on ranks (ANOVA) followed by post-hoc t-test comparing the response of the proteins with peroxidase activity to the control using Dunn's or Dunnett's method, p<0.05 was considered significant.

[2] = system: human foreskin fibroblast cells (HFF cells); experiment: Repeated stimulation of collagen I production; assay type: cell-based; conditions: further 5 days without second stimulation
Experimental: Experiments were performed to ensure human fibroblast cells could be stimulated to increase ECM protein production by proteins having peroxidase activity after more than one application of the proteins having peroxidase activity. The capacity to respond repeatedly to the proteins having peroxidase activity provides important utility for the generation of ECM in vitro, particularly given that spent culture media needs to be replaced on a regular basis to maintain the viability of the cells. These experiments were performed using human foreskin fibroblast cells (HFF cells) seeded into 96 well plates at a density of 1.2×10^4 cells/well and cultured for one week in 10% fetal bovine serum/Dulbecco's minimum essential media (10% FBS/DMEM) at 37° C. and 5% CO2 (as described in Example 3). The confluent cells were then starved overnight in serum free DMEM and triplicate wells treated for six hours with MP, ARP and LP as representative proteins having peroxidase activity or the control agents transforming growth factor β2 (TGFβ2; R&D Systems) and 10% FBS (JRH BioSciences). After 48 hours, the conditioned media was collected for measurement of collagen I (as a representative ECM protein) and the cells either restimulated for six hours with fresh solutions containing proteins having peroxidase activity or control agents or the media was replaced with fresh serum free DMEM. The cells were cultured for a further 5 days after which the media was collected a second time for the measurement of collagen I. Media was also collected from replicate wells treated at the start of the experiment and left for 7 days (total culture period) for comparison.

[3] = system: human foreskin fibroblast cells (HFF); experiment: Soluble collagen I, III and VI in HFF conditioned media (direct coat ELISA); assay type: cell-based; conditions: 30 μg/ml, 72 hours
Experimental: as §1, with “After 72 hours the culture media was collected for assessment of secreted, soluble collagen types I, III and VI as well as fibronectin protein and the cells assessed for viability/growth using an alamar blue fluorescent dye assay.” left out
The amount of soluble collagen types I, III, and VI in HFF conditioned media was measured by a direct coat ELISA method using standard curves constructed from purified human collagen I, III or VI (extracted from human placenta; col I, BD Biosciences; col III and VI, Rocklands Immunochemicals) and fibronectin (extracted from human plasma, Chemicon). Samples and standards (20 μl/well) were added to a 384 well spectraplate (Packard BioScience) and left at room temperature (RT) overnight. The spectraplate was then washed 6 times with PBS-tween 0.05% (PBS-T) and 2.5% bovine serum albumin (BSA)/PBS blocking solution added to each well and the plate incubated for 1 hour at RT. The plate was then washed 6 times with PBS-T and primary antibody (0.25 μg/ml rabbit-anti-human-collagen I polyclonal; 2 μg/ml rabbit-anti-human-collagen III polyclonal; 0.25 μg/ml rabbit-anti-human-collagen VI polyclonal; 0.2 μg/ml rabbit-anti-human-fibronectin polyclonal, all from Rockland Immunochemicals) in 5% non-fat dairy milk added to each well for four hours at RT. After washing (6×PBS-T), europium tagged anti-rabbit secondary antibody (0.5 μg/ml 1% BSA/PBS; Wallac Oy) was added for 1 hour at RT. After a final wash (6×PBS-T), enhancement solution was added for at least 10 minutes and fluorescence measured at excitation 340 nm and emission 615 nm using a Wallac Victor Multilabel HTS counter. The respective ECM concentration of each sample was determined from the standard curve (μg/ml) and normalized to control wells (DMEM only treated cells) with the mean±sem for triplicate wells calculated. Experiments were repeated at least three times with the combined data from all experiments shown.

C[C@@H]1C[C@H]2[C@@H]3CCC4=CC(=O)C=C[C@]4(C)[C@@]3(F)[C@@H](O)C[C@]2(C)[C@@]1(O)C(=O)CO [dexamethasone, reference compound]
inhibition at 20 µM (HFF cells; Homo sapiens, HFF, dexamethasone 20 μM, read-out: inhibition of collagen stimulated by ARP): ~30%

recombinant ascorbate peroxidase [APX]
HFF cell growth or viability [1]: Neither APX nor MPO had a major effect

B1: transforming growth factor β2 (protein, UniProt P61812 303-414, looked up)
Transforming growth factor …: ALDAAYCFRNVQDNCCLRPLYIDFKRDLGWKWIHEPKGYNANFCAGACPYLWSSDTQHSRVLSLYNTINPEASASPCCVSQDLEPLTILYYIGKTPKIEQLSNMIVKSCKCS
notes: control agent, fibrogenic factor (R&D Systems)
number of fibroblasts present at the injection site (H&E images) (dermis): profound increase in the number of fibroblasts
maximum increase in collagen I levels (HFF cells; 1-10 ng/ml, no dexamethasone): 2-2.5 fold
collagen I production when left untreated after the media change at day 2 [2]: maintained level of collagen I production

B2: myeloperoxidase (protein, UniProt P05164 165-745, looked up)
Myeloperoxidase: VTCPEQDKYRTITGMCNNRRSPTLGASNRAFVRWLPAEYEDGFSLPYGWTPGVKRNGFPVALARAVSNEIVRFPTDQLTPDQERSLMFMQWGQLLDHDLDFTPEPAARASFVTGVNCETSCVQQPPCFPLKIPPNDPRIKNQADCIPFFRSCPACPGSNITIRNQINALTSFVDASMVYGSEEPLARNLRNMSNQLGLLAVNQRFQDNGRALLPFDNLHDDPCLLTNRSARIPCFLAGDTRSSEMPELTSMHTLLLREHNRLATELKSLNPRWDGERLYQEARKIVGAMVQIITYRDYLPLVLGPTAMRKYLPTYRSYNDSVDPRIANVFTNAFRYGHTLIQPFMFRLDNRYQPMEPNPRVPLSRVFFASWRVVLEGGIDPILRGLMATPAKLNRQNQIAVDEIRERLFEQVMRIGLDLPALNMQRSRDHGLPGYNAWRRFCGLPQPETVGQLGTVLRNLKLARKLMEQYGTPNNIDIWMGGVSEPLKRKGRVGPLLACIIGTQFRKLRDGDRFWWENEGVFSMQQRQALAQISLPRIICDNTGITTVSKNNIFMSNSYPRDFVNCSTLPALNLASWREAS
HFF cell growth or viability [1]: Neither APX nor MPO had a major effect
increase in collagen I production [3]: 3 fold
